Results on one substance are retold here after PMC2856910.

The assay addresses β-cat bound to cadherin (in vitro binding studies, unpublished data) (UniProt Q02248).
Chain of UniProt Q02248 (Q02248 whole entry, chain 1 of 2): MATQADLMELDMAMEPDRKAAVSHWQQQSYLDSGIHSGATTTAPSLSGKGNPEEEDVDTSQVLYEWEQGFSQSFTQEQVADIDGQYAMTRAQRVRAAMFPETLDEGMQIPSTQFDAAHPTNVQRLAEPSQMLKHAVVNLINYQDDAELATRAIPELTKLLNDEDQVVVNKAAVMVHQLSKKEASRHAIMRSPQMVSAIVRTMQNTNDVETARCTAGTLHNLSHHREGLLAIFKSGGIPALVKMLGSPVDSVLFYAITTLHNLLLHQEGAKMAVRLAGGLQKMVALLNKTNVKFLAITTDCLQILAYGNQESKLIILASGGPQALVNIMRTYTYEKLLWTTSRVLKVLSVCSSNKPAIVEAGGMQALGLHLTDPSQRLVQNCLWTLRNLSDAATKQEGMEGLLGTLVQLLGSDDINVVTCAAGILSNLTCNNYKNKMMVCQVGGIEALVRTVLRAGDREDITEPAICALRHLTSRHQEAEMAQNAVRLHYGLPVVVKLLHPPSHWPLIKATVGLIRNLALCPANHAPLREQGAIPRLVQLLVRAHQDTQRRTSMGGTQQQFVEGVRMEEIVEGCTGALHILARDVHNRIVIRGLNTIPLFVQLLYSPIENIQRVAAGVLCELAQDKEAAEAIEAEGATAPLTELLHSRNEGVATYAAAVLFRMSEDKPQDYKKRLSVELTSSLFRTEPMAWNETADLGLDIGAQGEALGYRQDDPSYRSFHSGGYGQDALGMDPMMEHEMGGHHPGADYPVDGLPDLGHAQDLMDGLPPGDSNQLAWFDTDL
Chain of UniProt Q02248 (P09803 24-884, chain 2 of 2, further chain): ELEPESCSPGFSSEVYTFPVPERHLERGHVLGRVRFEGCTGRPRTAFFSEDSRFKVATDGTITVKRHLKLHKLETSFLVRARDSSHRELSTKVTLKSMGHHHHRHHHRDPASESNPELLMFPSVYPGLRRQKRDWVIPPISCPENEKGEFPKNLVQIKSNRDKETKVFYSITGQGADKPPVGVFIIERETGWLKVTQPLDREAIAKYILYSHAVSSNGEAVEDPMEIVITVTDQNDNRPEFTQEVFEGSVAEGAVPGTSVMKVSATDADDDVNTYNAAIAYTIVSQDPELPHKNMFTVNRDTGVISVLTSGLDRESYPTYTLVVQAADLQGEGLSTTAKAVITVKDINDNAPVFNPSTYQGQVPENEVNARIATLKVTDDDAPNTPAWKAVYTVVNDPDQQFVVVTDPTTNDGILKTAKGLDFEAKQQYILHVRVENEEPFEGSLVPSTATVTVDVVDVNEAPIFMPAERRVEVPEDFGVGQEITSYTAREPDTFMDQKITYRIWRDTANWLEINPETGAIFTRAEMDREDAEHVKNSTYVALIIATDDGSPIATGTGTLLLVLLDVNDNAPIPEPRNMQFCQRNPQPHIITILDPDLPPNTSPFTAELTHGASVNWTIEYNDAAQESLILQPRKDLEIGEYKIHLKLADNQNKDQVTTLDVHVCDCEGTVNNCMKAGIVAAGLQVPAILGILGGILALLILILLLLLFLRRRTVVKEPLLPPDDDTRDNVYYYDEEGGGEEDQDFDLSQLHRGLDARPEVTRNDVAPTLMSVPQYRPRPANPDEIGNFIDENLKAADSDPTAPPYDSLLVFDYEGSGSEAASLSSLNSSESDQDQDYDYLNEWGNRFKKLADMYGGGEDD

For “α-catenin (in vitro binding studies, unpublished data) (from UniProt P26231 1-906) (natural protein)”, the fold enhancement of binding against β-cat alone is greater than 10 fold.
